Assay results as given in article PMC7261163 (Nucleic Acids Research, 2020).

Assays:
[1] = molecular target: Mom (bacteriophage Mu), untagged, purified (bacteriophage Mu) (UniProt P06018); test: SEC
[2] = molecular target: Mom (bacteriophage Mu), untagged, purified (bacteriophage Mu) (UniProt P06018); test: cross-linking
Mom = molecular target: T1, Mom (Escherichia phage Mu, UniProt P06018); test: microscale thermophoresis, fluorescently labelled Mom; format: binding
T1 sequence (P06018 12-241): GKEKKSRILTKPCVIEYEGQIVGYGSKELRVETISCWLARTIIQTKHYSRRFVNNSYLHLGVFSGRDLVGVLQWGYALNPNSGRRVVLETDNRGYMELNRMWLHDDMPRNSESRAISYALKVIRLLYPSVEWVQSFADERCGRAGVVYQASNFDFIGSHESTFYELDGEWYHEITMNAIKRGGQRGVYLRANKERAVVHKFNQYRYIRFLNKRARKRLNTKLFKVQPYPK

Row | Compound | stoichiometry N [1] | stoichiometry N [2] | Kd (Mom) [µM]
1 | Mom (bacteriophage Mu), untagged, purified (from UniProt P06018 2-241) (enzyme) | 2 | 2 | 
2 | CC(=O)SCCNC(=O)CCNC(=O)[C@H](O)C(C)(C)COP(=O)(O)OP(=O)(O)OC[C@H]1O[C@@H](n2cnc3c(N)ncnc32)[C@H](O)[C@@H]1OP(=O)(O)O [acetyl CoA] |  |  | ~49
